Laboratory results published in PMC4542195 (mBio, 2015).

Molecular target: the molecule itself
Assay: SEC

B1: VanTG catalytic (C-terminal cytoplasmic) domain, residues 339 to 712, as used in solution (size excl (domain or fragment)
chain: TADTDRAYLEINLNNLEHNVNTLQKAMSPKCELMAVVKAEAYGHGMYEVTTYFEPIGVFYLAVATIDEGIRLRKYGIFSEILILGYTSPSRAKELCKFELTQTLIDYRYLLLLNKQGYDIKAHIKIDTGMHRLGFSTEDKDKILAAFFLKHIKVAGIFTHLCAADSLEEKEVAFTNKPIGSFYKVLDWPKSSGLNIPKVNIQTSYGLWNIQSWNVIYQSGVALYGVLRSTNDKTKLETDLRACSFLKAKVVLIRKIKQGGSVGYSRAFTATRDSLIAILPIGYADGFPRNLSCGNSYVLIGGRQAPIVGKICMDQLAVDVTDIPNVKTGSIATLIGKDGKEEITAPMVAESAESITNELLSRMEHRLNIIRRA
stoichiometry N: 2
